According to US20250074996A1 (Innovent, published 2025):
Like-named read-outs stand apart in the source and are kept apart here.

Key:
human GPRC5D [1] = molecular target: T1, human GPRC5D (human, UniProt Q9NZD1 1-345); experiment: flow cytometry on H929 cells
T1 construct: whole, on cells; also called huGPRC5D; G protein-coupled receptor family C group 5 member D
Experimental: (§1) The affinity of the anti-GPRC5D antibody was detected by flow cytometry. Antibodies at various concentrations were co-incubated with cells expressing human GPRC5D, including GS-CHO cells overexpressing human GPRC5D (huGPRC5D GS-CHO), multiple myeloma cells MM1.R, H929 and AMO-1, for 30 min. A fluorescently-labeled secondary antibody (APC-mouse anti-human IgG Fc antibody, Biolegend, Cat #409306) was then added, the cell fluorescence intensity was detected using a Live/Dead yellow dead cell stain (Thermo Fisher, Cat #L34967) by flow cytometry, a curve was fitted using GraphPad Prism 8.0, and the EC50 value was calculated to show the binding affinity of the antibody to human GPRC5D.
(§2) Among the antibodies detected, HB15H1G1 (the heavy chain variable region of SEQ ID NO: 25, and the light chain variable region of SEQ ID NO: 26) was a fully human antibody, and ch5E12C4 (the heavy chain variable region of SEQ ID NO: 98, and the light chain variable region of SEQ ID NO: 99), ch11B7 (the heavy chain variable region of SEQ ID NO: 100, and the light chain variable region of SEQ ID NO: 101) and ch7F5D4 antibodies (the heavy chain variable region of SEQ ID NO: 27, and the light chain variable region of SEQ ID NO: 28) were chimeric antibodies.

human GPRC5D [2] = molecular target: T1, human GPRC5D; experiment: flow cytometry on huGPRC5D-GS-CHO cells
Experimental: as §1, §2

human GPRC5D [3] = molecular target: T1, human GPRC5D; experiment: flow cytometry on AMO-1 cells
Experimental: as §1, §2

human GPRC5D [4] = molecular target: T1, human GPRC5D; experiment: flow cytometry on MM1.R cells
Experimental: as §1, §2

[5] = molecular target: T2, CD3E on the surface of Jurkat-NFAT-Luc cells (UniProt P07766 23-207); experiment: cell-based or functional assay
[6] = molecular target: T2, CD3E on the surface of Jurkat-NFAT-Luc …; experiment: cell-based or functional assay; remark: listed apart in the source
[7] = molecular target: T2, CD3E on the surface of Jurkat-NFAT-Luc …; experiment: cell-based or functional assay; remark: listed apart in the source
[8] = molecular target: T2, CD3E on the surface of Jurkat-NFAT-Luc …; experiment: cell-based or functional assay; remark: listed apart in the source
[9] = molecular target: T2, CD3E on the surface of Jurkat-NFAT-Luc …; experiment: cell-based or functional assay; remark: listed apart in the source

T2 sequence (P07766 23-207): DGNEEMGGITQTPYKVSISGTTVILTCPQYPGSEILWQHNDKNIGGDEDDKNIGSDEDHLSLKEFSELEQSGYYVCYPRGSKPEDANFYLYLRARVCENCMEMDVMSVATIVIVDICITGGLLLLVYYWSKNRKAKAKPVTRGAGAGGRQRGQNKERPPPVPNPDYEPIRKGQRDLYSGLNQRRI
T1 sequence (Q9NZD1 whole entry): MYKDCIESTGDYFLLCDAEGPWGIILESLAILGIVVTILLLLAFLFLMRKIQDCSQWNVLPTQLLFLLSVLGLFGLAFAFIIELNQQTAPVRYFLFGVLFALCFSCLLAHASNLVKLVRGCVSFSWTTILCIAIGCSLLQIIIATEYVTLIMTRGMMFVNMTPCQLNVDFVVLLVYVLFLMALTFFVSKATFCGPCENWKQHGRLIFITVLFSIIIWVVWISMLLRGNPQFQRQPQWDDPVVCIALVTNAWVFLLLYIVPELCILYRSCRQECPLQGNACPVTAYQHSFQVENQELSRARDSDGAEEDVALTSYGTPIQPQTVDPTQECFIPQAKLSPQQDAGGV

B1: ch5E12C4 (antibody, V domains shown)
VH: EVQLQQSGPELVKPGASVKMSCKASGYTFIGYVMHWVKRKPGQGLEWIGYINPYNDVSQHNGKFKGKATLTSDKSSSTAYMELSSLTSEDSAVYYCAREGRLGLRVLAYWGQGTLVTVSA
VL: not shown
EC50 (human GPRC5D [1]): 21.7 nM
EC50 (human GPRC5D [2]): 9.18 nM
EC50 (human GPRC5D [3]): 100 nM
EC50 (human GPRC5D [4]): 3.7 nM

B2: BCMA×CD3 bispecific antibody 46758 (bispecific antibody, human IgG1, kappa, L234A L235A)
chain 1: not shown
chain 2: not shown
chain 3: DIVMTQSPDSLAVSLGERATINCKSSQSLLNARTGKNYLAWYQQKPGQPPKLLIYWASTRESGVPDRFSGSGSGTDFTLTISSLQAEDVAVYYCKQSYSRRTFGCGTKVEIKGGGGSGGGGSGGGGSGGGGSQVQLVQSGAEVKKPGASVKVSCKASGFNIKDYYMHWVRQAPGQCLEWMGWIDLENANTVYNAKFQGRVTITRDTSASTAYMELSSLRSEDTAVYYCARDAYGRYFYDVWGQGTLVTVSSGSEPKSSDKTHTCPPCPAPEAAGGPSVFLFPPKPKDTLMISRTPEVTCVVVDVSHEDPEVKFNWYVDGVEVHNAKTKPREEQYNSTYRVVSVLTVLHQDWLNGKEYKCKVSNKALPAPIEKTISKAKGQPREPQVCTLPPSRDELTKNQVSLSCAVKGFYPSDIAVEWESNGQPENNYKTTPPVLDSDGSFFLVSKLTVDKSRWQQGNVFSCSVMHEALHNHYTQKSLSLSPGK
EC50 of Jurkat-NFAT-Luc luciferase activation; tumor cells H929 [5]: 0.07 nM
EC50 of Jurkat-NFAT-Luc luciferase activation; tumor cells L363 [5]: 0.43 nM
EC50 of Jurkat-NFAT-Luc luciferase activation; tumor cells ARD [6]: 133 pM
EC50 of Jurkat-NFAT-Luc luciferase activation; tumor cells MM.1S [6]: 159 pM
EC50 of Jurkat-NFAT-Luc luciferase activation; target cells huGPRC5D-GS-CHO [7]: 5.9 pM
EC50 of Jurkat-NFAT-Luc luciferase activation; tumor cells H929 [7]: 344 pM
EC50 of Jurkat-NFAT-Luc luciferase activation; tumor cells L363 [7]: 192 pM
EC50 of Jurkat-NFAT-Luc luciferase activation; tumor cells U266 [7]: 31.1 pM
EC50 of Jurkat-NFAT-Luc luciferase activation; tumor cells 8226 [8]: 79.8 pM
EC50 of Jurkat-NFAT-Luc luciferase activation; tumor cells H929 [8]: 83.5 pM
EC50 of Jurkat-NFAT-Luc luciferase activation; tumor cells L363 [8]: 90.1 pM
EC50 of Jurkat-NFAT-Luc luciferase activation; tumor cells U266 [8]: 603 pM
EC50 of Jurkat-NFAT-Luc luciferase activation; tumor cells 8226 [9]: 79.8 pM
EC50 of Jurkat-NFAT-Luc luciferase activation; tumor cells H929 [9]: 83.5 pM
EC50 of Jurkat-NFAT-Luc luciferase activation; tumor cells L363 [9]: 90.1 pM
EC50 of Jurkat-NFAT-Luc luciferase activation; tumor cells U266 [9]: 603 pM

B3: ch7F5D4 (antibody, V domains shown)
VH: DVQLQESGPGLVKPSQSLSLTCTVTGYSITSDYAWNWIRQFPGNKLEWMVYIDYTGRTSYNPSLKSRISLTRDTSKNQFFLQFNSVTTEDTATYYCARGNYGRYYYVMDYWGQGTSVTVSS
VL: DIQMTQTTSSLSASLGDRVTISCRASQDIRNYLNWYQQRPDGTIKLLIYYTSRLHSGVPSRFSGSGSGTDYSLTISNLDQEDFATYFCQQGNMLPWTFGGGTSLEIK
EC50 (human GPRC5D [1]): 7.3 nM
EC50 (human GPRC5D [2]): 2.59 nM
EC50 (human GPRC5D [3]): 6.3 nM
EC50 (human GPRC5D [4]): 0.5 nM

B4: ch11B7 (antibody, V domains shown)
VH: EVQLQQSVAELARPGASVKMSCKASGYTFTTYTMHWVKQRPGQGLEWIGFIIPSSGYTSYNQNFKDKVTLTADKSSSTAYMQLSSLTSEDSAVYFCTGGQARAYYPLDYWGQGTSVTVSS
VL: DIVMTQSPAILSVSPGERVSFSCRASQSIGTTIHWYQQRSNGSPRLLIKYASESISGIPSRFSGSGSGTYFTLSINSVESEDIADYFCQQSYNWPRTFGGGTKLEIK
EC50 (human GPRC5D [1]): 5.99 nM
EC50 (human GPRC5D [2]): 1.14 nM

B5: GPRC5D × CD3 (HB15H/hzsp34.24) (bispecific antibody, V domains shown)
VH 1: QVQLVESGGGVVQPGRSLRLSCTASGFTFSSYGLHWVRQAPGKGLEWVAVIWYDGSNKYYIDSVKGRFIISRDNSKNTLYLQMNSLRAEDTAVYYCARFTMFRGITLDYWGQGTLVTVSS
VL 1: DIQMTQSPSSLSASVGDRVTITCRASQRINSYLNWYQQKPGKAPKLLIYAASSLQSGVPSRFSGSGSGTDFTLTISNLQPEDFATYYCQQSYSTPLTFGGGTKVEIK
VH 2: EVQLVESGGGLVQPGGSLKLSCAASGFTFNTYAMNWVRQASGKGLEWVGRIRSKYNNYATYYADSVKDRFTISRDDSKSTLYLQMNSLKTEDTAVYYCARHGNFGQSYVSWFAYWGQGTTVTVSS
VL 2: QAVVTQEPSLTVSPGGTVTLTCRSSTGAVTTSNYANWVQQKPGQAPRGLIGGTNKRAPGVPARFSGSLLGDKAALTLLGAQPEDEAEYYCALWYSNLWVFGQGTKLTVL
EC50 of Jurkat-NFAT-Luc luciferase activation; tumor cells H929 [5]: 0.01 nM
EC50 of Jurkat-NFAT-Luc luciferase activation; tumor cells L363 [5]: 0.28 nM

B6: HB15H1G1 (antibody, V domains shown)
VH: B5 VH 1
VL: B5 VL 1
notes: Fully human anti-GPRC5D antibody; also called HB15H1B1
EC50 (human GPRC5D [1]): 3.7 nM
EC50 (human GPRC5D [2]): 1.89 nM
EC50 (human GPRC5D [3]): 9.4 nM
EC50 (human GPRC5D [4]): 0.7 nM

B7: TS-F2-1 (HB15H1G1/SP34.24/38456) (antibody, human IgG1, kappa, lambda, L234A L235A)
heavy 1: not shown
light 1: not shown
heavy 2: not shown
light 2: QAVVTQEPSLTVSPGGTVTLTCRSSTGAVTTSNYANWVQQKPGQAPRGLIGGTNKRAPGVPARFSGSLLGDKAALTLLGAQPEDEAEYYCALWYSNLWVFGQGTKLTVLGQPKAAPSVTLFPPSSEELQANKATLVCLISDFYPGAVTVAWKADSSPVKAGVETTTPSKQSNNKYAASSYLSLTPEQWKSHRSYSCQVTHEGSTVEKTVAPTECS
EC50 of Jurkat-NFAT-Luc luciferase activation; tumor cells L363 [5]: 0.24 nM

B8: TS-F2-2 (38456/SP34.24/HB15H1G1) (antibody, human IgG1, kappa, lambda, L234A L235A)
heavy 1: not shown
light 1: not shown
heavy 2: not shown
light 2: B7 light 2
EC50 of Jurkat-NFAT-Luc luciferase activation; tumor cells H929 [5]: 0.01 nM
EC50 of Jurkat-NFAT-Luc luciferase activation; tumor cells L363 [5]: 0.13 nM
